Six molecules from US20220242939A1 (BIOARCTIC, published 2022) can be followed below.

Non-standard residues stand in square brackets, D forms with d. No end group written: not given here. Ahx = NCCCCCC(=O)O

For test [1], the target named is T1, recombinant full-length ApoE4 (aa 1-299; SEQ ID NO:45; Abcam cat. no. ab50243) (human, UniProt P02649 19-317).
T1 construct: Bought protein; also called recombinant ApoE4 full-length protein
Description: direct ELISA, second protocol; proteins coated at 0.1 uM, BSA peptides at 1 ug/ml; antibody in 3-fold dilutions from 3000 ng/ml; blank reduced OD 450 nm. On the procedure: The screening was performed according to standard ELISA protocols. Briefly, 1 μg/ml solutions of BSA-conjugated neo-epitope peptides, recombinant C-terminal ApoE fragment, negative control peptide and full-length ApoE were prepared by dilution in PBS. 50 μl/well were added to an ELISA half-area 96 well microtiter plate, the plate was sealed with adhesive sealer and incubated over night at 4° C. After discarding the solution, the plates were blocked with 150 μl/well of protein-free blocking solution (Pierce) for 1 h at room temperature with shake (900 rpm). The plates were washed four times with washing buffer containing 0.28 mM NaH₂PO₄, 2.5 mM Na₂HPO₄, 150 mM NaCl, 0.1% TWEEN®-20 and 0.0075% Kathon CG. […] An anti-ApoE C-terminal antibody was used as a reference antibody (ApoE E-8 mouse monoclonal, cat. no. sc-393302; Santa Cruz Biotechnology). 50 μl/well were added into the ELISA plates and incubated for 2 h at room temperature with shake (900 rpm). The plates were washed four times as described previously. […] After another wash (as described previously), 50 μl/well of K-Blue® aqueous substrate (Neogen) were added, and the reaction was stopped after 5-15 min with 50 μl/well of 0.5 M […]. The optical density at 450 nm was read using an ELISA reader (Tecan). The optical density was plotted against the antibody concentration to generate concentration-response curves (FIG. 16).
These were added in the same molarity (0.1 μM) to provide an equal number of molecules available for binding by the antibodies (BSA-coupled peptides were coated at 1 μg/ml as before).
In general terms: An ELISA detects its analyte on a solid surface through an enzyme-linked reagent.

Test [2] addresses T2, full-length ApoE in human brain extract from Alzheimer's disease patients (human, UniProt P02649 19-317).
T2 construct: mature; Endogenous protein on Western blot or in solution (IP); also called ApoE full-length protein
Description: Western blot of AD brain RIPA 2% SDS extract; recombinant antibody at 2 ug/ml as primary antibody. Background: In western blotting, separated proteins are transferred to a membrane and probed.

The target of test [3] is T3, recombinant C-terminal ApoE fragment G200-HIS (ApoE-G200-H299-10xHIS) (human, UniProt P02649 218-317).
T3 construct: also called G200-HIS fragment
Description: BLI (Octet RED384), G200-HIS captured on anti-HIS biosensor, antibody as analyte, 1:2 bivalent analyte fit. Here is the method: Selectivity evaluation and KD determination of recombinant antibodies by bio-layer interferometry: Binding interactions between the N-terminal neo-epitope peptide G200 (SEQ ID NO:50) conjugated to BSA (ligand) and the recombinant antibodies produced in Example 11 (analyte) were evaluated using an Octet RED384 instrument (ForteBio). All analyzed proteins were diluted in 1×Kinetics Buffer (ForteBio).
To analyze the antibody-target interaction and to determine the binding affinity of the recombinant antibodies for recombinant C-terminal ApoE fragment G200-HIS (SEQ ID NO:48), anti-HIS capture biosensors (HIS1K) were used. In the first step (loading step), HIS-tagged recombinant C-terminal ApoE fragment was captured onto the surface of the biosensor. Next, a concentration gradient of pure antibodies was prepared ranging from 150 nM to 2.5 nM in 2-fold serial dilutions. Subsequently, the HIS1K biosensors with ligand were dipped in wells containing diluted antibodies, and the association phase was monitored for 600 s. For monitoring the dissociation phase, the HIS1K biosensors with ligand were moved to a well containing 1× Kinetics Buffer and the dissociation was monitored for 1000 s. For evaluation of the kinetic experiments, the Octet Data Analysis software was used. All values collected from interaction analysis were blank subtracted, and a 1:2 binding kinetics global fit model (bivalent analyte) was used for the evaluation.
Selectivity evaluation and KD determination of recombinant antibodies by bio-layer interferometry: Binding interactions between the recombinant G200 C-terminal ApoE fragment (ligand) and recombinant antibodies (analyte) were evaluated by using an Octet RED384 instrument (ForteBio).

Test [4] concerns the target T4, negative control peptide AATVGSLAGQPLQER-Acp-C (SEQ ID NO:53) conjugated to BSA (human, not fully specified (residue 17); printed as AATVGSLAGQPLQER-Acp-C; also: C-terminal Cys conjugated to BSA carrier).
T4 construct: BSA carrier; also called 192-206 BSA-conjugated peptide
T4 peptide: AATVGSLAGQPLQER[Ahx]C
Description: direct ELISA, target coated at 1 ug/ml, antibody in 3-fold dilutions from 500 ng/ml, OD 450 nm. Here is the method:
Selectivity evaluation of recombinant antibodies by direct ELISA: The direct ELISA described below was used to evaluate the binding selectivity of the recombinant antibodies produced in Example 11.
The screening was performed according to standard ELISA protocols. Briefly, 1 μg/ml solutions of BSA-conjugated neo-epitope peptides, recombinant C-terminal ApoE fragment, negative control peptide and full-length ApoE were prepared by dilution in PBS. 50 μl/well were added to an ELISA half-area 96 well microtiter plate, the plate was sealed with adhesive sealer and incubated over night at 4° C. After discarding the solution, the plates were blocked with 150 μl/well of protein-free blocking solution (Pierce) for 1 h at room temperature with shake (900 rpm). The plates were washed four times with washing buffer containing 0.28 mM NaH₂PO₄, 2.5 mM Na₂HPO₄, 150 mM NaCl, 0.1% TWEEN®-20 and 0.0075% Kathon CG. Generated recombinant antibodies of interest were serially diluted 3-fold with a starting dilution at 0.5 μg/ml (mixed 1:1 with dilution buffer: PBS with 0.1% BSA and 0.05% TWEEN®-20). An anti-ApoE C-terminal antibody was used as a reference antibody (ApoE E-8 mouse monoclonal, cat. no. sc-393302; Santa Cruz Biotechnology). 50 μl/well were added into the ELISA plates and incubated for 2 h at room temperature with shake (900 rpm). The plates were washed four times as described previously. […] After another wash (as described previously), 50 μl/well of K-Blue® aqueous substrate (Neogen) were added, and the reaction was stopped after 5-15 min with 50 μl/well of 0.5 M […]. The optical density at 450 nm was read using an ELISA reader (Tecan).

Test [5] addresses T3, recombinant C-terminal ApoE fragment …. Description: SPR (Biacore 8K), G200-HIS amine-coupled on CM5, antibody as analyte, bivalent analyte fit (kd1). On the technique in general: Surface plasmon resonance follows binding to a sensor surface in real time, without labels.

T3 sequence (P02649 other isoform, or with tags, fused parts or gaps limits assumed): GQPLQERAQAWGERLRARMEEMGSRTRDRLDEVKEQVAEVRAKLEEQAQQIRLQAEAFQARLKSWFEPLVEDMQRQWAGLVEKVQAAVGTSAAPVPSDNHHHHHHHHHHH
T1 sequence (P02649 19-317 C130R limits assumed): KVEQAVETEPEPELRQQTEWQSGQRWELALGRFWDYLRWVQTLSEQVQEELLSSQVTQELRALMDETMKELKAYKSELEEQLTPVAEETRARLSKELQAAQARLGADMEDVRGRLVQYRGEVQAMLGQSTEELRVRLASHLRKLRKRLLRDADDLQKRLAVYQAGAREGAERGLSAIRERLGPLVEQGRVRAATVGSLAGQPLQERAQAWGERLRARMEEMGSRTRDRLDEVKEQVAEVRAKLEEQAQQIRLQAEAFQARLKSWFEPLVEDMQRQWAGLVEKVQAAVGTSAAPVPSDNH
T2 sequence (P02649 19-317): as the sequence (P02649 19-317 C130R limits assumed) above, with R112C counted along it

B1: 23D5, recombinant IgG2c antibody (antibody, V domains shown)
VH: EVQLVESGGGLVKPGGSLKLSCSASGFTFSRYAMSWVRQSPEKRLEWVAEINSGGSYSFYSDTVTGRFTISRDNAKNTLFLEMSSLRSEDTAIYYCARQLSGTDYYGTDYWGQGTSVTVSS
VL: DVLMTQTPLSLPVSHGDQASISCRSSQSLLYSNGNTYLEWYLQKPGQSPKLLIYKVSNRFSGVPDRFSGSGSGTDFTLKISRVEAEDLGVYYCFQGSHVPYTFGGGTKLEIK
As for B1, the binding result in test [1] is listed as “no binding (tested: 3000 ng/ml)”; in test [2] it was “no binding (tested: 2 ug/ml (text))”; in test [4], “no binding (tested: 500 ng/ml)”. Also, the Kd in test [3] was 5.2 nM. For the same molecule, the koff (commonly the first-order rate constant of dissociation) in test [5] stood at 0.0105 s⁻¹.

B2: 7B10, recombinant IgG2c antibody (antibody, V domains shown)
VH: AVQLVESGGGLVKPGRSLKLSCAASGFTFSSYAMSWVRQFPDKRLDWVAEISSGGGSTNYLDTVTGRFTISRDNAKNTLYLEMNSLRSEDTAMYYCARQLVGTDYYGTDYWGQGTSVTVSS
VL: DVLMTQTPLSLPVSLGDQASISCRSSQNIVYSNGNTYLEWYLQKPGQSPKLLIYKVSNRFSGVPDRFSGSGSGTDFTLKISRVEAEDLGVYYCFQGSHVPYTFGGGTKLEIK
notes: also called 7610
As to B2, the binding result in test [1] is listed as “no binding (tested: 3000 ng/ml)”; in test [2], “no binding (tested: 2 ug/ml (text))”; in test [4] it was “no binding (tested: 500 ng/ml)”. In test [3], the Kd was found to be 0.8 nM. The koff in test [5] is 0.0038 s⁻¹.

B3: 17G4, recombinant IgG2c antibody (antibody, V domains shown)
VH: EVQLVESGGGLVKPGGSLKLSCSASGFTFSRYAMSWVRQSPEKRLEWVAEINSGGSYSFYSDTVTGRFTISRDNAKNTLFLEMSSLRSEDTAIYYCARQLTGTDYYGTDYWGQGTSVTVSS
VL: DVLMTQTPLSLPVSHGDQASISCRSSQSLLYSNGNTYLEWYLQKPGQSPKLLIYKVSNRFSGVPDRFSGSGSGTDFTLKISRVEAEDLGVYYCFQGSHVPYTFGGGTKLEIK
As to B3, the binding result in test [1] is on record as “no binding (tested: 3000 ng/ml)”; in test [2], “no binding (tested: 2 ug/ml (text))”; in test [4], “no binding (tested: 500 ng/ml)”. In addition, in test [3], the Kd amounted to 0.8 nM. Also, the koff in test [5] was 0.0024 s⁻¹.

B4: 28F2, recombinant IgG2c antibody (antibody, V domains shown)
VH: QIQLVQSGPDLKKPGETVKISCKASGYTFTNYAMHWMKQAPGKALKWMGWINTYTGEPTFADDFKGRFAFSLETSASTAYLQINSLKNEDMATYFCAREGYYDRSHYFDYWGQGTTLTVSS
VL: DVLMTQTPLSLPVSLGDQASISCRSSLSLVHGDGNTYLEWYLQKPGQSPKLLIYKVSNRFSGVPDRFSGSGSGTDFTLKISRVEAEDLGVYYCLQGSHIPFTFGSGTKLEIK
Regarding B4, the binding result in test [1] is “no binding (tested: 3000 ng/ml)”; in test [2], “no binding (tested: 2 ug/ml (text))”; in test [4], “no binding (tested: 500 ng/ml)”. Also, in test [3], the Kd came out at 9.7 nM. The koff in test [5] was determined as 0.0035 s⁻¹.

B5: 4E6, recombinant IgG2c antibody (antibody, V domains shown)
VH: EVQLVESGGDLVKPGGSLKLSCAASGFTFSSYAMSWVRQSPEKRLEWVAEISGSGSRDHYTDSVTGRFTVSRDNAKNTLYLEMSSLRSEDTAIYYCARQLTGTDYYGTDYWGQGTSVTVSS
VL: DVLMTQIPLSLPVSLGDQASISCRSSQSIVYSNGNTYLEWYLQRPGQSPKLLIYKVSNRFSGVPDRFSGSGSGTDFTLKISRVEAEDLGVYYCFQGSHLPYTFGGGTKLEIK
notes: also called recombinant anti-G200 antibody 4E6
As to B5, the binding result in test [1] was “no binding (tested: 3000 ng/ml)”; in test [2], “no binding (tested: 2 ug/ml (text))”; in test [4], “no binding (tested: 500 ng/ml)”. Moreover, the Kd in test [3] is 0.9 nM. The koff in test [5] worked out at 0.006 s⁻¹.

B6: 7C7, recombinant IgG2c antibody (antibody, V domains shown)
VH: EVQLVESGGGLVKPGGSLRLSCAASGFTFSSFAMSWVRQSPERRLEWVAEISRGGGYAFYSDTVTGRFTISRDNARNTLFLEMGSLRSEDTAMYYCSRQLTGTDYYAMDYWGQGTSVTVSS
VL: DVLLTQTPLSLFVSLGDQASISCRSSQSIVYTNGNTYLEWYLQKPGQSPKLLIYKVSNRFSGVPDRFSGSGSGTDFTLKISRVEAEDLGVYYCFQGSQVPYTFGGGTKLELK
As for B6, the binding result in test [1] is “no binding (tested: 3000 ng/ml)”; in test [2], “no binding (tested: 2 ug/ml (text))”; in test [4], “no binding (tested: 500 ng/ml)”. The Kd in test [3] was 1.9 nM. For the same molecule, the koff in test [5] worked out at 0.0029 s⁻¹.
